Reference: publication PMC11481384 (2024)

Target: Keap1 Kelch domain (amino acid residues 309 to 624) (human, UniProt Q14145 309-624)
Assay: ITC

Keap1 Kelch domain (amino acid residues 309 to 624), sequence (Q14145 309-624): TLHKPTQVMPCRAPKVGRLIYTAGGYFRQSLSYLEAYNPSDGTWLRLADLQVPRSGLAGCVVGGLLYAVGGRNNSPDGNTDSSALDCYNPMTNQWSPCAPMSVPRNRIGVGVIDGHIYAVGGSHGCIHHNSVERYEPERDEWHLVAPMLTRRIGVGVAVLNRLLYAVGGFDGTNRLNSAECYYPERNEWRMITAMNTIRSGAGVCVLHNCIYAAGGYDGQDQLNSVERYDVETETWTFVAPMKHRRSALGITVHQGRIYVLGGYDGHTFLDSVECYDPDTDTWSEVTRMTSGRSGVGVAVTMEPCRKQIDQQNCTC

Row | Binder | Kd [µM]
1 | ESGEEELASKLD (Limits inferred from the name: first residue E, last residue D, 12 residues, containing ESGE; by analogy IE 12-mer = 71-82 (PDB 8IN0) and the 20-mer is probably 71-90. Synthetic peptide, termini not stated) [ED 12-mer peptide] | 14
2 | NVESGE (Sequence shown only in Fig. 4B; limits taken as the NxESGE motif (UniProt Keap1-interaction region 77-82). Synthetic peptide, termini not stated) [6-mer peptide] | 133
3 | INVRKRNVESGE [PGAM5 IE 12‐mer peptide] | 63.6
